In article PMC6497953:

Biological target: PilE2, major pilin of Streptococcus sanguinis 2908 type IV pili (mature, untagged) (Streptococcus sanguinis 2908)
Experiment: top-down mass spectrometry of purified filaments; purified Tfp from S. sanguinis WT, intact protein mass spectra on an LTQ Orbitrap; ratio of the two major proteoforms

PilE1, major pilin of Streptococcus sanguinis 2908 type IV pili (mature, untagged) (natural protein)
stoichiometry N (PilE1 per PilE2): 1.33
